For three substances, Km, kcat and kcat/Km results are on record in article PMC8588036, “Molecular Cloning and Identification of NADPH Cytochrome P450 Reductase from Panax ginseng” (Molecules, 2021).

The subject of series [1] is NC(=O)C1=CN([C@@H]2O[C@H](COP(=O)(O)OP(=O)(O)OC[C@H]3O[C@@H](n4cnc5c(N)ncnc54)[C@H](OP(=O)(O)O)[C@@H]3O)[C@@H](O)[C@H]2O)C=CC1. Put plainly: purified protein. Conditions: 100 μmol/L cytochrome c, NADPH 0-400 μmol/L, 50 mmol/L Tris HCl pH 7.4, 0.1 mmol/L EDTA, 25 °C.
In series [2] the test system is T1, NC(=O)C1=CN([C@@H]2O[C@H](COP(=O)(O)OP(=O)(O)OC[C@H]3O[C@@H](n4cnc5c(N)ncnc54)[C@H](OP(=O)(O)O)[C@@H]3O)[C@@H](O)[C@H]2O)C=CC1.
T1 construct: pET28a, His-tag, E. coli BL21(DE3), Ni-NTA
As to the kind of experiment: cytochrome c reduction, A550. Format: biochemical, Panax ginseng. The conditions noted are these: 100 μmol/L cytochrome c, NADPH 0-400 μmol/L, 50 mmol/L Tris HCl pH 7.4, 0.1 mmol/L EDTA, 25 °C.

Chain of PgCPR2 (Panax ginseng) (chain, as listed by the source): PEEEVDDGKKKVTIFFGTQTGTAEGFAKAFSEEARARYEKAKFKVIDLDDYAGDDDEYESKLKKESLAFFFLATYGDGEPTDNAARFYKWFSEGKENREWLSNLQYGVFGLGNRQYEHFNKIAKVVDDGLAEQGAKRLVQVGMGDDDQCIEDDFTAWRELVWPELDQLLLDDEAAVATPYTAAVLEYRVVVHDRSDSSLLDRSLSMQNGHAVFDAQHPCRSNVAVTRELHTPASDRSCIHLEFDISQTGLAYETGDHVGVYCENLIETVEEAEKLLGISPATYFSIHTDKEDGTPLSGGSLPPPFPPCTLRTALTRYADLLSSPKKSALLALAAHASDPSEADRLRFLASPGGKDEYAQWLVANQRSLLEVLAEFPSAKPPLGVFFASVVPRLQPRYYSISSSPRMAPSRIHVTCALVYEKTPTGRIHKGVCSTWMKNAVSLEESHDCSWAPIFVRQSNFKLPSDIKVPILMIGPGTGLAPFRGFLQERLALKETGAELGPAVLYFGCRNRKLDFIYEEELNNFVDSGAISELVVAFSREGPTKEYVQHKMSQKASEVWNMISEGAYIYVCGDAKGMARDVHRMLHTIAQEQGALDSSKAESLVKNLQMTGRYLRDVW
Chain of PgCPR1 (Panax ginseng) (chain, as listed by the source): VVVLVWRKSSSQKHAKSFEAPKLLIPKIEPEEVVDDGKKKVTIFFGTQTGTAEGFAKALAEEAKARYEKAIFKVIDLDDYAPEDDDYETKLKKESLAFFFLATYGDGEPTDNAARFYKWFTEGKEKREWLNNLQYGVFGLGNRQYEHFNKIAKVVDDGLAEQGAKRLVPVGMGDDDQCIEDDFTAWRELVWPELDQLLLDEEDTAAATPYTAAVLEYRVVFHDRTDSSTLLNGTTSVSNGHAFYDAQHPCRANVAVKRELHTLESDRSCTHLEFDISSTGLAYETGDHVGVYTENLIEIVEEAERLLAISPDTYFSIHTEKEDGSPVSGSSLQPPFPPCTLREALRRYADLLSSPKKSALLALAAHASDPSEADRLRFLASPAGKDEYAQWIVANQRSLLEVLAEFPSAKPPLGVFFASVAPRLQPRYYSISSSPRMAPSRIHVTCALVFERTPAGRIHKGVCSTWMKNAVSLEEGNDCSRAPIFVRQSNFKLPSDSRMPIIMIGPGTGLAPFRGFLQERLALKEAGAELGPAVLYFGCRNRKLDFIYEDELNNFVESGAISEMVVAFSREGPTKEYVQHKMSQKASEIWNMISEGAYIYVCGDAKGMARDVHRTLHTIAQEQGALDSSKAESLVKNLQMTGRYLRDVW

One may read the Km as the concentration of substrate that gives half-maximal velocity. As a reminder, the kcat is the maximal rate divided by the concentration of active sites. Broadly, the kcat/Km is the turnover number divided by the Michaelis constant. For the substance AtCPR1 (Arabidopsis thaliana), in series [1], the Km came out at 84.61 ± 8.548 µM, the turnover number (kcat) was 2.74 s⁻¹ and the kcat/Km was 32400 M⁻¹ s⁻¹.
PgCPR1 (Panax ginseng): in series [2], the Michaelis-Menten constant (Km) is 62.9 ± 5.807 µM, the kcat is 3.32 ± 0.0968 s⁻¹ and the kcat/Km is 52800 M⁻¹ s⁻¹.
On the same counts, the results for PgCPR2 (Panax ginseng) are 85.27 ± 6.07 µM, 3.38 ± 0.087 s⁻¹ and 39600 M⁻¹ s⁻¹.
